We go through one molecule from patent CN115073602A (SUZHOU ABCARTA MEDICAL TECH CO LTD, dated 2022).

One assay deals with T1, CD3抗原 (SEQ ID NO:1 合成多肽).
T1 construct: KLH/OVA conjugation is stated for immunisation only; also called CD3的多肽
T1 peptide: KGQRDLYSGLNQRRI
The assay is described as follows: ELISA screening of hybridoma clones on CD3 antigen (SEQ ID NO:1). On the technique in general: An ELISA detects its analyte on a solid surface through an enzyme-linked reagent.

The target in another assay is T2, CD3蛋白 (表达CD3蛋白的细胞).
T2 construct: whole, on cells; also called 表达CD3蛋白细胞
T2 sequence (P07766 23-207): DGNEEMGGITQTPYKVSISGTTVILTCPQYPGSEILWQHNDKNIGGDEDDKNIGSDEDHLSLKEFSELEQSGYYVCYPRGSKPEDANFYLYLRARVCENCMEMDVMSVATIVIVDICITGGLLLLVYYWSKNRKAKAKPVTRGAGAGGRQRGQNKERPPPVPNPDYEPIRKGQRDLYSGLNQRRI
Kind of assay: flow cytometry on CD3-expressing cells, against blank control without antibody.

B1: 230B2F6抗CD3重组兔单克隆抗体 (antibody, V domains shown)
VH: QSLEESGGRLVTPGTPLTLTCTASGFSLNDYWMSWVRQAPGKGLEWIGIIIRGGTTWYANWVKGRFTISKTSTTVDLKMTSPTTEDTATYFCARIGGGNTGFNLWGPGTLVTVSS
VL: AQVLTQTPSSVSEPVGGTVTINCQASENIYISLAWYQQKPGQPPNLLIYDASDLASGVPSRFSGSGSGTEFTLTISGVQCEDAATYYCQSYNYSSVTFGGGTEVVVK
notes: also called 230B2F6抗体; 230B2F6抗CD3单克隆抗体
As to B1, the binding result with CD3抗原 (SEQ ID NO:1 合成多肽) is reported as “binds”. Also, the “fold increase of MFI over blank control” value in the assay with CD3蛋白 (表达CD3蛋白的细胞) worked out at 1070 fold.
